# Patent publication US20010010923A1, “MODIFIED CARBOXYPEPTIDASE” (priority 1997, published 2001)
# Marks after values point to notes of the source that are not given here.
# Legend:
# [1] = Transpeptidation of FA-Ala-OBzl with H-Leu-NH2, Table 3; type: biochemical; conditions: FA-Ala-OBzl 0.2 mM; H-Leu-NH2; pH 7.5
# Summary of the method: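 Site-directed mutant enzymes were reacted with H-Leu-NH2 in 50 mM HEPES, 5 mM EDTA, pH 7.5, with acyl-donor substrate at 0.2 mM final. Products were quantified by C-18 RP-HPLC at 254 nm at about 35% and 80% substrate consumption. fa is aminolysis product over all products; famax is fa at nucleophile saturation, and KN(app) is the nucleophile concentration giving famax/2.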
# [2] = Transpeptidation of Bz-G-A-R-A-R-A-OH (arginine at P1) with H-Leu-NH2, Table 1; type: biochemical; conditions: [N] 375 mM H-Leu-NH2; 2mM substrate; pH 7.5; [E] 0.1 mg/mL
# Experimental: The mutant carboxypeptidase enzvmes used in these studies were produced by site-directed mutagenesis, essentially following the procedures described in published PCT Patent Application No. WO 95/20039. In general, oligonucleotides synthesized to encode the amino acid substitution were used to produce the mutant enzymes.
# Transamidation reactions were carried out generally as described in PCT Application WO 95/20039. In general, the method included dissolving the nucleophile (H-Leu-NH2, unless otherwise indicated) in 50 mM HEPES, 5 mM EDTA and adjusting the pH to 7.5, 5 μl of peptide substrate (8 mM Bz-G-A-R-A-R-A-OH, unless otherwise indicated, in methanol) was added to 190 μl nucleophile solution followed by 5 μl enzyme, […]
# During the reaction, 20 μl aliquots were removed from the reaction mixture and added to 50 μl 1% trifluoroacetic acid to quench the reaction. The reactant composition was determined by HPLC using a Waters HPLC equipped with a C-18 Waters Novapac 4μ reverse phase column and various gradients of acetonitrile in 0.1% trifluoroacetic acid. The separation was monitored at 254 nm allowing the direct quantification of the products from the integrated peak areas. The composition of the reaction mixture was determined at least twvice during the reaction, the first when 20-50% (preferably 35%) of the substrate had been consumed in the reaction and the second time when 50-90% (preferably 80%) of the peptide substrate had been consumed.
# The reaction products were collected and identified by amino acid analysis after acid hydrolysis using a Pharmacia Alpha Plus analyzer. Further identification was obtained by co-chromatography of authentic standard compounds.
# The fraction of aminolysis (fa) was expressed as the ratio between the formed aminolysis product and the sum of all products formed. Unconsumed substrate was disregarded in the calculations.
# [3] = ratio of hydrolysis rates, background statement; cited from earlier work
# [4] = Transpeptidation of FA-Ala-Xaa-OH with H-Gly-NH2, Table 2; type: biochemical; conditions: 1.9 M H-Gly-NH2, pH 7.5, room temperature
# Summary of the method: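 Enzyme reacted with 0.2 mM peptide substrate and nucleophile in 50 mM HEPES, 5 mM EDTA, pH 7.5; aliquots quenched in 1% TFA. Products quantified by reverse-phase HPLC at 254 nm at two conversion points (20-50% and 50-90% substrate consumed). Fraction of aminolysis = aminolysis product over all products, ignoring unconsumed substrate.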
# [5] = Transpeptidation of Bz-G-A-R-A-R-X-OH at pH 7.5 at 50% substrate consumption, Table 4; type: biochemical; set-up: key to fa: fraction: aminolysis product / sum of all products formed; conditions: for Pmax (peak product yield) / fa: 375 mM H-Leu-NH2
# Summary of the method: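 Transamidation was performed by dissolving the H-Leu-NH2 nucleophile in 50 mM HEPES with 5 mM EDTA at pH 7.5, then adding the Bz-G-A-R-A-R-X-OH peptide substrate in methanol followed by enzyme. Aliquots were quenched in 1% trifluoroacetic acid and analysed by C-18 reverse-phase HPLC at 254 nm. The fraction of aminolysis was the aminolysis product divided by all products formed.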
molecule,measurement,setting,value
"Wild type: wild type (native) carboxypeptidase Y (protein, UniProt P00729 112-532, looked up) Carboxypeptidase Y: KIKDPKILGIDPNVTQYTGYLDVEDEDKHFFFWTFESRNDPAKDPVILWLNGGPGCSSLTGLFFELGPSSIGPDLKPIGNPYSWNSNATVIFLDQPVNVGFSYSGSSGVSNTVAAGKDVYNFLELFFDQFPEYVNKGQDFHIAGESYAGHYIPVFASEILSHKDRNFNLTSVLIGNGLTDPLTQYNYYEPMACGEGGEPSVLPSEECSAMEDSLERCLGLIESCYDSQSVWSCVPATIYCNNAQLAPYQRTGRNVYDIRKDCEGGNLCYPTLQDIDDYLNQDYVKEAVGAEVDHYESCNFDINRNFLFAGDWMKPYHTAVTDLLNQDLPILVYAGDKDFICNWLGNKAWTDVLPWKYDEEFASQKVRNWTASITDEVAGEVKSYKHFTYLRVFNGGHMVPFDVPENALSMVNEWIHGGFSL",fa,[1],0.95^a
same,fa (fraction of aminolysis),[2],0.05
same,FA-Arg-Ala-OH hydrolyzed more slowly than FA-Leu-Ala-OH,[3],about 500 times
same,"Fraction of aminolysis (fa), P1' Ala",[4]; FA-Ala-Ala-OH 0.2 mM,0.90
same,"Fraction of aminolysis (fa), P1' Leu",[4]; FA-Ala-Leu-OH 0.2 mM,0.20
same,"Fraction of aminolysis (fa), P1' Met",[4]; FA-Ala-Met-OH 0.2 mM,0.18
same,"Fraction of aminolysis (fa), P1' Phe",[4]; FA-Ala-Phe-OH 0.2 mM,0.04
same,"Fraction of aminolysis (fa), P1' Val",[4]; FA-Ala-Val-OH 0.2 mM,0.16
same,Pmax (peak product yield),[5]; leaving group A,0
same,fa,"[5]; leaving group A, 50% substrate consumption",<0.05
same,t(min),"[5]; leaving group A, 50% substrate consumption, 375 mM H-Leu-NH2, 2 mM substrate, [E] 0.1 mg/mL",ca. 110000 min
same,Pmax (peak product yield),[5]; leaving group I,0
same,fa,"[5]; leaving group I, 50% substrate consumption",<0.05
same,Pmax (peak product yield),[5]; leaving group L,0
same,fa,"[5]; leaving group L, 50% substrate consumption",<0.05
same,Pmax (peak product yield),[5]; leaving group M,0
same,fa,"[5]; leaving group M, 50% substrate consumption",<0.05
same,Pmax (peak product yield),[5]; leaving group V,0
same,fa,"[5]; leaving group V, 50% substrate consumption",<0.05
